Assay in all cases: cross-linking
Assay [1] concerns the target AcpP (acyl carrier protein) loaded with crosslinking probe DH10 (E. coli) (UniProt P0A6A8).
In assay [2] the target is AcpP (acyl carrier protein) loaded with crosslinking probe DH10X (E. coli) (UniProt P0A6A8).
The target of assay [3] is AcpP (acyl carrier protein) loaded with crosslinking probe DH6 (E. coli) (UniProt P0A6A8).
Assay [4] addresses AcpP (acyl carrier protein) loaded with crosslinking probe DH8 (E. coli) (UniProt P0A6A8).
Assay [5] deals with T1, FabA, β-hydroxyacyl-AcpP dehydratase (wild type) (E. coli, UniProt P0A6Q3 2-172).
T1 sequence: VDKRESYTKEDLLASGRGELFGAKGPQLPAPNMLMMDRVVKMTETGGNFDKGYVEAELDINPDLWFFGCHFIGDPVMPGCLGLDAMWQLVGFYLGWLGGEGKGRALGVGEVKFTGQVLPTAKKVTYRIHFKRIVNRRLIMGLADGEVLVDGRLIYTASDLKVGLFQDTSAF

As for FabA F165A (enzyme), the crosslinking efficiency relative to FabA WT in assay [1] and in assay [2] was 50% throughout.
As for FabA F171A (enzyme), the crosslinking efficiency relative to FabA WT in assay [1] and in assay [2] was 50% throughout.
For the molecule FabA L164A (enzyme), the crosslinking efficiency relative to WT FabA in assay [3], in assay [1], in assay [2] and in assay [4] was over 50% in each case.
Consider FabA L94A (enzyme), for which the crosslinking efficiency relative to WT FabA in assay [3], in assay [1], in assay [2] and in assay [4] was over 50% each time.
As for FabA R137E (enzyme), the percent complex formation (crosslinking) in assay [3], in assay [1], in assay [2] and in assay [4] was under 50% each time.
In the case of FabA F92A (enzyme), the crosslinking efficiency relative to WT FabA in assay [3], in assay [1], in assay [2] and in assay [4] was over 50% throughout.

B1: AcpP (acyl carrier protein) loaded with crosslinking probe DH10 (natural protein, E. coli)
chain: STIEERVKKIIGEQLGVKQEEVTNNASFVEDLGADSLDTVELVMALEEEFDTEIPDEEAEKITTVQAAIDYINGHQA
modifications: S36 carries the phosphopantetheine analogue of probe DH10 (sulfonyl-3-alkyne warhead, mimics a C10 acyl chain)
With B1, in assay [5], the binding result is “binds”.

(Values after PMC4656083 (Chemistry & biology, 2015).)
